In patent publication US20230052646A1 (JJP BIOLOGICS SP Z O O, published 2023):
Numbering of substitutions follows the chain as printed. Names and notes keep the numbering of the source. Values belong to the molecule of their own block, whether it stands above or below them.

How the values were obtained:
[1] = biological target: membrane-bound human HVEM on Promega bioassay cells (NFκB-RE-luc human HVEM HEK293 reporter cells; CHO-K1 Activator cells) (human) (UniProt Q92956); experiment: cell-based or functional assay
[2] = biological target: membrane-bound human HVEM on Promega bioassay cells (NFκB-RE-luc human HVEM HEK293 reporter cells; CHO-K1 Activator cells) (human) (UniProt Q92956); experiment: flow cytometry, 1:20, NFκB-RE-luc HVEM reporter cells
[3] = biological target: membrane-bound full-length human HVEM on stable HVEM-transfected HEK293F cells (clone no. 128) (human) (UniProt Q92956); experiment: flow cytometry, 1:20, HEK293F clone no. 128
[4] = biological target: T1, membrane-bound full-length human HVEM on stable HVEM-transfected HEK293F cells (clone no. 128) (human, UniProt Q92956 39-283); experiment: FACS, biotinylated TNFβ pre-bound, then Ab 20 µg/mL
T1 construct: The same cDNA was also expressed on Sf9 insect cells; also called TNFRSF14; CD270
T1 sequence: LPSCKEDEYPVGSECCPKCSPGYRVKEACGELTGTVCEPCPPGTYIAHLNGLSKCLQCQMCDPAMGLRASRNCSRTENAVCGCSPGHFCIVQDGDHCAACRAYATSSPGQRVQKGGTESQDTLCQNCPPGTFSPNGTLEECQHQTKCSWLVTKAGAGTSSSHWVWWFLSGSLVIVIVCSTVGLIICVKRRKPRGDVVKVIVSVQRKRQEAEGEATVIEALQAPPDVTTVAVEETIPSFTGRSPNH
Experimental: (§1) Generation of human ‘full-length’ HVEM-transfected HEK293F cells (clone no. 128) is described in Example 1a. Displacement of pre-bound soluble human BTLA, soluble human CD160, soluble human LIGHT, and soluble human TNFβ from surface human HVEM-transfected cells was analysed by FACS analysis. To this end, stable human full-length HVEM-transfected HEK293F cells were put at 10×10⁶ cells/mL in ice-chilled phosphate-buffered saline containing 0.1% BSA (Sigma)/0.05% NaN₃ (PBS/BSA/NaN₃) supplemented with 50 μg/mL human IgGs (blocking possible Fcγ receptors; Sigma) for 10 minutes at 4° C. Then, 10 μL/tube (i.e., 0.1×10⁶ cells) of these cells were incubated without or with 50 μL soluble biotinylated human BTLA-human Fcγ fusion protein (Sino Biological Inc) at 2 μg/mL/tube, with soluble his-tagged human CD160 (Sino Biological Inc) at 20 μg/mL/tube, with soluble his-tagged human LIGHT (Sino Biological Inc) at 2 μg/mL/tube, or with soluble biotinylated human TNFβ (Sino Biological Inc) at 0.2 μg/mL/tube in PBS/BSA/NaN₃ for 30 minutes at 4° C. After this (i.e., without washing), cells were subsequently incubated with 50 μL purified chimeric mouse/human anti-HVEM antibody at 20 μg/mL/tube or a human IgG4/κ (Sigma) negative isotype control at 20 μg/mL/tube for 30 minutes at 4° C. After extensive washing in PBS/BSA/NaN₃, cells were incubated with 1:200 diluted PE-conjugated streptavidin (detection BTLA and TNFβ; Jackson ImmunoResearch) or with biotinylated mouse anti-his antibody (detection CD160 and LIGHT; R&D Systems) at 10 μg/mL for 30 minutes at 4° C. After extensive washing in PBS/BSA/NaN₃, cells were incubated with 1:200 diluted PE-conjugated streptavidin (detection BTLA and TNFβ; Jackson ImmunoResearch) or with biotinylated mouse anti-his antibody (detection CD160 and LIGHT; R&D Systems) at 10 μg/mL for 30 minutes at 4° C. After extensive washing in PBS/BSA/NaN₃, cells were incubated with 1:200 diluted PE-conjugated streptavidin (detection CD160 and LIGHT; Jackson ImmunoResearch) for 30 minutes at 4° C. After extensive washing in PBS/BSA/NaN₃, cells were fixed in 4% formaldehyde in PBS/BSA/NaN₃ for 30 minutes at 4° C. Residual binding of ligands BTLA, CD160, LIGHT and TNFβ on membrane human HVEM was measured using a flow cytometer (model FACSCalibur; BD Biosciences).

[5] = biological target: T1, membrane-bound full-length human HVEM …; experiment: FACS, Ab 10 µg/mL then biotinylated BTLA on HVEM-HEK293F
Experimental: (§2) Generation of human ‘full-length’ HVEM-transfected HEK293F cells (clone no. 128) is described in Example 1a. Binding of soluble human BTLA, of soluble human CD160, of soluble human LIGHT, and of soluble human TNFβ on surface human HVEM-transfected cells was analysed by FACS analysis. To this end, stable human full-length HVEM-transfected HEK293F cells were put at 10×10⁶ cells/mL in ice-chilled phosphate-buffered saline containing 0.1% BSA (Sigma)/0.05% NaN₃ (PBS/BSA/NaN₃) supplemented with 50 μg/mL human IgGs (blocking possible Fcγ receptors; Sigma) for 10 minutes at 4° C. Then, 10 μL/tube (i.e., 0.1×10⁶ cells) of these cells were incubated with or without 100 μL purified chimeric mouse/human anti-HVEM antibody at 10 μg/mL/tube or a human IgG4/κ (Sigma) negative isotype control at 10 μg/mL/tube for 30 minutes at 4° C. After this (i.e., without washing), cells were subsequently incubated with 1 μg/mL soluble biotinylated human BTLA (Sino Biological Inc), with 10 μg/mL soluble his-tagged human CD160 (Sino Biological Inc), with 1 μg/mL soluble his-tagged human LIGHT (Sino Biological Inc), or with 0.1 μg/mL soluble biotinylated human TNFβ (Sino Biological Inc) in PBS/BSA/NaN₃ for 30 minutes at 4° C. After extensive washing in PBS/BSA/NaN₃, cells were incubated with 1:200 diluted PE-conjugated streptavidin (detection BTLA and TNFβ; Jackson ImmunoResearch) or with biotinylated mouse anti-his antibody (detection CD160 and LIGHT; R&D Systems) at 10 μg/mL for 30 minutes at 4° C. After extensive washing in PBS/BSA/NaN₃, cells were incubated with 1:200 diluted PE-conjugated streptavidin (detection CD160 and LIGHT; Jackson ImmunoResearch) for 30 minutes at 4° C. After extensive washing in PBS/BSA/NaN₃, cells were fixed in 4% formaldehyde in PBS/BSA/NaN₃ for 30 minutes at 4° C. Binding of ligands BTLA, CD160, LIGHT and TNFβ on membrane human HVEM was measured using a flow cytometer (model FACSCalibur; BD Biosciences). For comparison, purified BTLA/HVEM blocking mouse anti-human HVEM antibody counterparts no. 36H12, 45H6, 48H6, 11H7, and 49G4 at 10 μg/mL/tube and a mouse IgG1 (BD Biosciences) negative isotype control at 10 μg/mL/tube were run in parallel.

[6] = biological target: T1, membrane-bound full-length human HVEM …; experiment: FACS, biotinylated BTLA-Fc pre-bound, then Ab 20 µg/mL
Experimental: as §1

[7] = biological target: T1, membrane-bound full-length human HVEM …; experiment: FACS, Ab 10 µg/mL then biotinylated TNFβ on HVEM-HEK293F
Experimental: as §2

[8] = biological target: T1, membrane-bound full-length human HVEM …; experiment: FACS, his-LIGHT pre-bound, then Ab 20 µg/mL
Experimental: as §1, with “After extensive washing in PBS/BSA/NaN₃, cells were incubated with 1:200 diluted PE-conjugated streptavidin (detection BTLA and TNFβ; Jackson ImmunoResearch) or with biotinylated mouse anti-his antibody (detection CD160 and LIGHT; R&D Systems) at 10 μg/mL for 30 minutes at 4° C. After extensive washing in PBS/BSA/NaN₃, cells were incubated with 1:200 diluted PE-conjugated streptavidin (detection CD160 and LIGHT; Jackson ImmunoResearch) for 30 minutes at 4° C. After extensive washing in PBS/BSA/NaN₃, cells were fixed in 4% formaldehyde in PBS/BSA/NaN₃ for 30 minutes at 4° C.” left out

[9] = biological target: T1, membrane-bound full-length human HVEM …; experiment: FACS titration on HVEM-HEK293F, half-maximum binding
Experimental: In order to determine the relative binding affinity of purified BTLA/HVEM blocking chimeric mouse/human anti-human HVEM antibodies no. 36H12, 45H6, 48H6, 11H7, and 49G4 for human HVEM, FACS analysis was used.
To this end, stable human full-length HVEM-transfected HEK293F cells (clone no. 128; see Example 1(a) above) were put at 10×10⁶ cells/mL in ice-chilled PBS containing 0.1% BSA (Sigma)/0.05% NaN₃ (PBS/BSA/NaN₃) supplemented with 50 μg/mL human IgGs (blocking possible Fcγ receptors; Sigma) for 10 minutes at 4° C. Then, 10 μL/tube (i.e., 0.1×10⁶ cells) of these cells were incubated with or without 100 μL titrated (in PBS/BSA/NaN₃) purified BTLA/HVEM blocking chimeric mouse/human anti-human HVEM antibody/tube for 30 minutes at 4° C. After extensive washing in PBS/BSA/NaN₃, cells were subsequently incubated with 1:200 diluted PE-conjugated goat anti-human IgG Fcγ-specific antibodies (Jackson ImmunoResearch) for 30 minutes at 4° C. After extensive washing in PBS/BSA/NaN₃, cells were fixed in 4% formaldehyde in PBS/BSA/NaN₃ for 30 minutes at 4° C. Binding (geo-mean fluorescence intensity) of chimeric mouse/human anti-human HVEM antibodies no. 36H12, 45H6, 48H6, 11H7, and 49G4 on membrane human HVEM was measured using a flow cytometer (FACSCalibur; BD Biosciences). For comparison, purified BTLA/HVEM blocking mouse anti-human HVEM antibody counterparts no. 36H12, 45H6, 48H6, 11H7, and 49G4 were run in parallel, and their binding was monitored as described in Example 2 (a).

B2: chimeric mouse/human IgG4/kappa anti-human HVEM antibody no. 36H12 (antibody, V domains shown)
VH: EVQLQQSGAGLVKPGASVKLSCTASGFNIKDTYMHWVRQRPEQGLEWIGRIDPATANTKYDPKFQGKATLTTDTSSNTAYLQLSSLTSEDTAVYYCVTYGYDVSWFAYWGLGALVTVSA
VL: DVLMTQTPLSLPVSLGDQASISCRSSQSIVHSNGITYLEWYLQKPGQSPKLLIYKVSNRFSGVPDRFSGSGSGTDFTLKISRVEAEDLGVYYCFQGSHVPLTFGAGTKLELKR
notes: 16/17 within the entry; Stabilized human IgG4 (S239P) already in the entry; also called chimeric 36H12
- % displacement of pre-bound ligand [4]: > 90%
- % blocking of ligand binding [5]: > 95%
- % displacement of pre-bound ligand [6]: > 95%
- % blocking of ligand binding [7]: > 94%
- % displacement of pre-bound ligand [8]: < 20%
- EC50 [9]: 0.433 µg/mL

B3: chimeric mouse/human IgG4/kappa anti-human HVEM antibody no. 45H6 (antibody, V domains shown)
VH: DVQLVESGGGLVQPGGSRKLSCAASGFTFSSFGMHWVRQAPEKGLEWVAYISSGNSNIYYVDTVKGRFTISRDNPKNTLFLQMTSLRSEDTAMYYCARKRAYGDYSGFSMDYWGQGTSVTVSS
VL: DIVMTQSQKFMSTSVGDRVSVTCKASQNVDTNVAWYQQKPGQSPKALIYSASYRYSGVPDRFTGSGSGTDFTLTISNVQSEDLAEYFCQQYNKFPLTFGGGTKLEIKR
notes: 24/25 within the entry; Stabilized human IgG4 (S239P) already in the entry; also called chimeric 45H6
- % displacement of pre-bound ligand [4]: > 90%
- % blocking of ligand binding [5]: > 95%
- % displacement of pre-bound ligand [6]: > 95%
- % blocking of ligand binding [7]: > 94%
- % displacement of pre-bound ligand [8]: < 20%
- EC50 [9]: 0.306 µg/mL

Continued, values first:

- EC80 of LIGHT-induced NFκB-RE-luc activation [1]: 0.3 µg/mL
Molecule: soluble his-tagged human LIGHT (R&D Systems) (ligand)

- signal to noise ratio [2]: < 5
- signal to noise ratio [3]: 1000
Molecule: phycoerythrin (PE)-conjugated mouse anti-human HVEM antibody (clone eBioHVEM-122; eBioscience)

- % displacement of pre-bound ligand [4]: > 55%
- % blocking of ligand binding [5]: > 95%
- % displacement of pre-bound ligand [6]: > 95%
- % blocking of ligand binding [7]: > 80%
- % displacement of pre-bound ligand [8]: < 20%
- EC50 [9]: 0.312 µg/mL
B1: chimeric mouse/human IgG4/kappa anti-human HVEM antibody no. 49G4 (antibody, V domains shown)
VH: EVQLQQSGAELVKPGASVKLSCRASGFNIKDTYMHWVKQRPEQGLEWIGRIDPARGNTKYDPKFQGKATITADTSSNTAYLQLSSLTSEDTAVYYCASAMDYWGQGTSVTVSS
VL: B2 VL with I35N, Y41F
notes: 48/49 within the entry; Stabilized human IgG4 (S239P) already in the entry; also called chimeric 49G4
